Target: T1, Flag-Rab11b (full length) (human, UniProt Q15907 1-218)
T1 construct: human Rab11b, full length cDNA in a modified pFastbac HT; the nucleotide state is told by the assay; also called Rab11b-GTPγS; Rab11b-GDPβS; source: Sf9, baculovirus, purified (Ni-NTA); not shown: FLAG, N-terminal, kept
T1 sequence (looked up): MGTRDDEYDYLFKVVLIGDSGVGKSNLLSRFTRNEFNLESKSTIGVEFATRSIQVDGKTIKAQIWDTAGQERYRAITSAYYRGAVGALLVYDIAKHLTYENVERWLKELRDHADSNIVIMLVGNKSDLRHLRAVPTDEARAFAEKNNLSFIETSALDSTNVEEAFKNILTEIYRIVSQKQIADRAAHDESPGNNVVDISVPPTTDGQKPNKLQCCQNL
Experiment: pull-down; GST fusion on Glutathione Sepharose 4B; Flag-Rab11b pre-treated with 5-fold excess GTPγS (30 min, 37 °C); 10 µM Rab11b, 2.5 µM Myo5b Tail, 20 µM GTPγS, 20 mM Tris-HCl pH 7.5, 150 mM NaCl, 1 mM MgCl2, 1 mM EGTA, 1 mM DTT, 0.05% Tween, 1% BSA, 4 °C, 1 h; anti-flag Western blot
Conditions: both partners purified

binding result: binds
B1: GST-Rab11FIP3 Rab binding domain (694-756 a.a.) (domain or fragment, human, UniProt O75154 694-756, looked up)
chain: QGAKSLFSTAFSESLAAEISSVSRDELMEAIQKQEEINFRLQDYIDRIIVAIMETNPSILEVK
notes: Cloned in pET-30a with GST at the N-terminus and 6xHis at the C-terminus; also called GST-FIP3 RBD; GST-FIP3-RBD; source: E. coli BL21 (DE3), purified (Ni-NTA); not shown: GST, N-terminal, kept
